What all share (assay): cell-based or functional assay
For assay [1], the target named is catalytic domain of human MMP9 (human) (UniProt P14780).
Assay [2] has as its target human MMP2 (pro-MMP2 activated with APMA) (human) (UniProt P08253).
The target in assay [3] is active MMP13 (UniProt P45452).

Sequence of human MMP2 (pro-MMP2 activated with APMA) (human) (P08253 30-660): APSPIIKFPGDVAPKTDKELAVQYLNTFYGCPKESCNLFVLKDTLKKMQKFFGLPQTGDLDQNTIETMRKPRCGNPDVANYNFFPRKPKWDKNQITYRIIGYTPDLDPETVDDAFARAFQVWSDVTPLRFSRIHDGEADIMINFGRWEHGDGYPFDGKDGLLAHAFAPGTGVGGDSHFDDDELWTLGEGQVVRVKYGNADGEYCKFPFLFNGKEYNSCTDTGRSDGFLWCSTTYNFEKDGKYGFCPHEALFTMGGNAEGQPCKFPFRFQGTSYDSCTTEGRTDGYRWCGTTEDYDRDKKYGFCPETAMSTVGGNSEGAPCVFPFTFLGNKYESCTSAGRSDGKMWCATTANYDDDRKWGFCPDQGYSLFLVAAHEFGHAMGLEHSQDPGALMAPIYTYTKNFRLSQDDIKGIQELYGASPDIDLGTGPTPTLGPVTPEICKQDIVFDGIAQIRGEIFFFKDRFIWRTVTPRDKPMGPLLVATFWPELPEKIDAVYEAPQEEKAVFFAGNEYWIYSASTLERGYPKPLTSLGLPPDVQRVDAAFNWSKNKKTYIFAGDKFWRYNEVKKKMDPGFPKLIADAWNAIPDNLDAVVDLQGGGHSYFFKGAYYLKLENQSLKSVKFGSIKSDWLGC
Sequence of catalytic domain of human MMP9 (human) (P14780 107-444 limits assumed): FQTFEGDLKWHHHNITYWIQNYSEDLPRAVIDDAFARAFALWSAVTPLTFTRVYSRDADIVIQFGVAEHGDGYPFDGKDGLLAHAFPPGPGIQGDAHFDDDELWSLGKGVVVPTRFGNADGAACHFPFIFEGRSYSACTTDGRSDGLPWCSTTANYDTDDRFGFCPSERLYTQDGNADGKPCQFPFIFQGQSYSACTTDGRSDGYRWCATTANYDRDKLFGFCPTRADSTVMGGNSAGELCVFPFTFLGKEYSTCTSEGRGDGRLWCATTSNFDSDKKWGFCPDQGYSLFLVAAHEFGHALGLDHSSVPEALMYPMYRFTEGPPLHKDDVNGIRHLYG

In turn, TIMP-3 mutein K45S, F57N displayed an MMP9 IC50 in assay [1] of 4 nM. Also, the MMP2 IC50 in assay [2] is 0.3 nM.
As for TIMP-3 mutein F57N, in assay [1], the MMP9 IC50 came to 4.6 nM. Also, in assay [3], the MMP13 IC50 worked out at 0.5 nM. In assay [2], this substance had an MMP2 IC50 of 0.5 nM.
TIMP-3 mutein T63N, K65T: in assay [1], the MMP9 IC50 was 0.5 nM. In assay [3], this substance showed an MMP13 IC50 of 2.2 nM. In assay [2], this substance gave an MMP2 IC50 of 0.8 nM.
Taken in the same sequence, the figures for TIMP-3 mutein P56N, G58T were 2.3 nM, 3.1 nM and 1 nM.

For the origin of these results see US20190085054A1.
